Conditions in all cases: remark: other sources report otherwise
The target of assay [1] is recombinant soluble homotrimeric HA, A/Netherlands/219/03 (H7N7) (influenza A virus A/Netherlands/219/03 (H7N7)). Kind of assay: microarray, trimeric HA, transfection supernatant.
Assay [2] has as its target recombinant soluble homotrimeric HA, A/northern shoveler/California/HKWF115/2007 (H6N1) (influenza A virus A/northern shoveler/California/HKWF115/2007 (H6N1)). Kind of assay: microarray, trimeric HA, transfection supernatant.
Assay [3] deals with recombinant soluble homotrimeric HA, A/chicken/Vietnam/NCVD-016/08 (H5N1) (influenza A virus A/chicken/Vietnam/NCVD-016/2008 (H5N1)). Kind of assay: microarray, trimeric HA, transfection supernatant.
Assay [4] concerns the target recombinant soluble homotrimeric HA, A/Hong Kong/156/97 (H5N1) (influenza A virus A/Hong Kong/156/97 (H5N1)). Kind of assay: microarray, trimeric HA, transfection supernatant.
Assay [5] concerns the target recombinant soluble homotrimeric HA, A/duck/Yangzhou/02/2005 (H8N4) (influenza A virus A/duck/Yangzhou/02/2005 (H8N4)). Kind of assay: microarray, trimeric HA, transfection supernatant.
Assay [6] addresses recombinant soluble homotrimeric HA of A/Japan/305/57 (H2N2) (Influenza A virus A/Japan/305/1957 (H2N2)). Kind of assay: HA microarray, BCC supernatant.
The target in assay [7] is recombinant soluble homotrimeric HA of A/Vietnam/1203/04 (H5N1) (Influenza A virus A/Vietnam/1203/2004 (H5N1)). The experiment in a line: HA microarray, BCC supernatant.
Assay [8] concerns the target recombinant soluble homotrimeric HA of A/Wisconsin/67/05 (H3N2) (Influenza A virus A/Wisconsin/67/2005 (H3N2)). Kind of assay: HA microarray, BCC supernatant.
In assay [9] the target is recombinant soluble homotrimeric HA of A/chicken/Vietnam/NCVD-016/08 (H5N1) (Influenza A virus A/chicken/Vietnam/NCVD-016/2008 (H5N1)). The experiment in a line: HA microarray, BCC supernatant.
Assay [10] addresses recombinant soluble homotrimeric HA of A/duck/Yangzhou/02/2005 (H8N4) (Influenza A virus A/duck/Yangzhou/02/2005 (H8N4)). The experiment in a line: HA microarray, BCC supernatant.
Assay [11] addresses recombinant soluble homotrimeric HA of A/Anhui/1/05 (H5N1) (Influenza A virus A/Anhui/1/2005 (H5N1)). The experiment in a line: HA microarray, BCC supernatant.
Assay [12] addresses recombinant soluble homotrimeric HA of A/Solomon Islands/3/06 (H1N1) (Influenza A virus A/Solomon Islands/3/2006 (H1N1)). Kind of assay: HA microarray, BCC supernatant.
Assay [13] has as its target recombinant soluble homotrimeric HA of A/Indonesia/5/05 (H5N1) (Influenza A virus A/Indonesia/5/2005 (H5N1)). The experiment in a line: HA microarray, BCC supernatant.
Assay [14] concerns the target recombinant soluble homotrimeric HA of A/Hong Kong/2108/03 (H9N2) (Influenza A virus A/Hong Kong/2108/2003 (H9N2)). Kind of assay: HA microarray, BCC supernatant.
The target in assay [15] is recombinant soluble homotrimeric HA of A/Netherlands/219/03 (H7N7) (Influenza A virus A/Netherlands/219/03 (H7N7)). The experiment in a line: HA microarray, BCC supernatant.
The target in assay [16] is recombinant soluble homotrimeric HA of A/northern shoveler/California/HKWF115/2007 (H6N1) (Influenza A virus A/northern shoveler/California/HKWF115/2007 (H6N1)). The experiment in a line: HA microarray, BCC supernatant.
Assay [17] has as its target recombinant soluble homotrimeric HA of A/California/4/09 (H1N1) (Influenza A virus A/California/04/2009 (H1N1)). The experiment in a line: HA microarray, BCC supernatant.
The target of assay [18] is recombinant soluble homotrimeric HA of A/swine/Ontario/01911-2/99 (H4N6) (Influenza A virus A/Swine/Ontario/01911-2/99 (H4N6)). The experiment in a line: HA microarray, BCC supernatant.
Assay [19] deals with recombinant soluble homotrimeric HA, A/Anhui/1/05 (H5N1) (influenza A virus A/Anhui/1/2005 (H5N1)). Kind of assay: microarray, trimeric HA, transfection supernatant.
Assay [20] has as its target recombinant soluble homotrimeric HA of A/Egypt/3300-NAMRU3/08 (H5N1) (Influenza A virus A/Egypt/3300-NAMRU3/2008 (H5N1)). Kind of assay: HA microarray, BCC supernatant.

B1: TCN-558 (5248_H10b) (antibody, V domains shown)
VH: QVQLVQSGSEVKKPGTSVKVSCTASGSVFTNYGISWVRQAPGQGLEWMGGIIPLFGAAKYAQKFQGRVTITADESTKTVYMELSRLTSKDTAIYFCAKAPRVYEYYFDQWGQGTPVTVSS
VL: EIVMTQFPATLSVSPGERVTLSCRASQSVSNNLAWYQQKPGQPPRLLIYDASTRATGVPAKFSGTGSGTEFTLSISSLQSEDFAVYYCQQYHNWPPSYSFGLGTKLEIK
B1: the Trimeric HA Binding RLU came to 5840 RLU in assay [1], 29400 RLU in assay [2] and 33400 RLU in [3].

B2: TCN-550 (5096_F06) (antibody, V domains shown)
VH: QVQLQESGPGLVKPSETLSLTCTVSGASINSHYWSWIRQPPGKGLEWIGYVYYSGSTTYNPSLKSRVTLSVDTSKNQFSLNLSSVTAADTAFYYCARHPYDVLTGSGDWFDPWGQGTLVTVSS
VL: SYVLTQAPSVSVAPGQTARITCGGNAIGSKKVHWYQHKAGQAPVLVVYDDTDRPSGIPERFSGSNSWSTATLTINRVEAGDEADYYCQVWDFTIDHVVFGGGTKLTVL
Turning to B2, the Trimeric HA Binding RLU worked out at 2300 RLU in [2]; 955 RLU in assay [4]; 1800 RLU in assay [3]; 4710 RLU in [5]; 201 RLU in [6]; 277 RLU in [7]. For the same molecule, the Trimeric HA Binding RLU amounted to 26300 RLU in [8]; 361 RLU in assay [9]; 407 RLU in [10]; 1210 RLU in [11]; 204 RLU in assay [12]; 9100 RLU in [13]. For the same molecule, in assay [14], the Trimeric HA Binding RLU came to 2280 RLU.

B3: TCN-527 (5086_C06) (antibody, V domains shown)
VH: QVQLQESGPGLVKPSETLSLNCAVSGGSISNYYWSWIRQPPGKGLEWIGYISYNGRPKYNPSLTSRVTISVDTSKDQFSLELRSVTAADTALYYCARETRFGELLSPYDAFEIWGQGTMVTVSS
VL: DIQMTQSPSSLSASVGDRVTMTCRASQNIRSYLNWYQQRPGTAPKLLIYAASTLHSGVPSRFSGGGSGTDFTLTINNLQPEDFASYYCQQSYDNPQTFGQGTKVEIK
Consider B3, for which the Trimeric HA Binding RLU in assay [6] came out at 19300 RLU; in assay [15], 8890 RLU; in assay [7], 21300 RLU; in assay [8], 5720 RLU; in assay [9] it was 27000 RLU; in [10] it was 28800 RLU. Further, the Trimeric HA Binding RLU in assay [16] amounted to 30300 RLU; in assay [11], 21400 RLU; in [12] it was 16500 RLU; in assay [17], 28000 RLU; in assay [13] it was 23800 RLU; in assay [14], 16000 RLU. Further, in [18], the Trimeric HA Binding RLU came to 7690 RLU.

B4: TCN-528 (5087_P17) (antibody, V domains shown)
VH: QVQLVQSGSEVKKPGASVKVSCKASGYTFTNYDINWIRQAPGQGLEWMGWINPNSGTTGSAQRFQGRVTITVDTSITTVYMELSSLRSDDTAIYYCARGRELLRLQHFLTDSQSERRDCFDPWGQGTLVTVSS
VL: DIQMTQSPSSLSASVGDRVTITCRANQDIGIYLNWYQQNPGKVPKLLLHGASSLQGGVPSRFSASGSGTDFTLTIHSLQPEDLATYYCQQSRRLPYTFGQGTRVELK
For B4, the Trimeric HA Binding RLU in [6] worked out at 46400 RLU; in assay [15], 49300 RLU; in [7], 45600 RLU; in assay [8] it was 48800 RLU; in assay [9] it was 38200 RLU; in [10] it was 38400 RLU. In addition, the Trimeric HA Binding RLU turned out to be 46800 RLU in assay [16]; 49800 RLU in assay [11]; 44800 RLU in assay [12]; 48800 RLU in assay [17]; 42800 RLU in assay [13]; 42000 RLU in assay [14]. Also, the Trimeric HA Binding RLU in assay [18] worked out at 47500 RLU.

B5: TCN-546 (5089_L08) (antibody, V domains shown)
VH: QVQLQQWGAGLLKPSETLSLTCGVYGGSLSDYYWSWIRQPPGKGLEWIGEINHSGGTNYNPSLKRRVTISVDTSKKQFSLKMNSVTAADTAVYYCARGTDPDTEVYCRAGNCAAFDFWGQGTLVTVSS
VL: EIVLTQSPGTLSLSPGERATLSCRASHFVIGRAVAWYQQKPGQAPRLLIYGASSRATGIPDRFSGSGSGTDFTLTISRLETEDFAVFYCQHYGSSPRYAFGQGTKLEIK
On to B5, for which the Trimeric HA Binding RLU in assay [4] came out at 1240 RLU; in [3], 2940 RLU; in [5], 11400 RLU; in assay [19], 33300 RLU; in [6] it was 520 RLU; in assay [7], 349 RLU. Further, the Trimeric HA Binding RLU in [8] amounted to 30200 RLU; in assay [9], 421 RLU; in assay [11], 2040 RLU; in [17], 350 RLU; in assay [13] it was 18400 RLU; in [14], 13000 RLU.

B6: TCN-543 (5081_G23) (antibody, V domains shown)
VH: QVHLVQSGAEVRKPGDSVKVSCKTSGYTFSTYPVAWVRQVPGQGLEWMGWISTYNGNTNFAQNFQGRVTLTTDTTTNTAYMEVRSLKFDDTAVYYCARVEGSYRDFWNNQNRFDPWGQGTLVTVSS
VL: SYVLTQPPSVSVAPGQTARISCGGSNIGGKSVHWYQQKPGQAPVLVVYDDSGRPSGIPERFSGSNSGDTATLTISRVEAGDEADYFCQVWDNFGGVFGTGTKVTVL
Regarding B6, the Trimeric HA Binding RLU stood at 12900 RLU in assay [1]; 1430 RLU in [4]; 5880 RLU in assay [3]; 13100 RLU in [5]; 661 RLU in assay [15]; 1360 RLU in assay [8]. For the same molecule, the Trimeric HA Binding RLU came out at 511 RLU in assay [12] and 13100 RLU in [17].

B7: TCN-521 (3280_D18) (antibody, V domains shown)
VH: EVQLVQSGGGLVQPGGSLRLACVVSGFTVTSNYITWVRQAPGKGLEWVSVIYSHGRAYYSASVNGRFTISRHTSKNTVYLEMNSLRPEDTAVYYCAGGGLVGGYDEYFFDYWGQGTLATVSS
VL: ETVLTQSPGTLSLTPGERATLSCRVGQSVSGSHLAWYQQKPGQAPRLLIYGASSRATGIPDRFGGSVSGTDFTLTISRLEPEDSAVYYCQQYGDSRYTFGQGTKLEIK
For B7, the Trimeric HA Binding RLU in assay [6] came out at 6730 RLU; in [9], 32400 RLU; in assay [20], 47900 RLU; in assay [16], 48000 RLU; in assay [12] it was 39600 RLU; in assay [13], 31500 RLU. Also, the Trimeric HA Binding RLU in assay [14] turned out to be 93 RLU.

Source of the values: patent US20150104459A1.
